# B1: LsNOX (Lactobacillus sanfranciscensis NOX) (Fructilactobacillus sanfranciscensis) (protein)
# chain: MKVIVVGCTHAGTFAVKQTIADHPDADVTAYEMNDNISFLSCGIALYLGKEIKNNDPRGLFYSSPEELSNLGANVQMRHQVTNVDPETKTIKVKDLITNEEKTEAYDKLIMTTGSKPTVPPIPGIDSSRVYLCKNYNDAKKLFEEAPKAKTITIIGSGYIGAELAEAYSNQNYNVNLIDGHERVLYKYFDKEFTDILAKDYEAHGVNLVLGSKVAAFEEVDDEIITKTLDGKEIKSDIAILCIGFRPNTELLKGKVAMLDNGAIITDEYMHSSNRDIFAAGDSAAVHYNPTNSNAYIPLATNAVRQGRLVGLNLTEDKVKDMGTQSSSGLKLYGRTYVSTGINTALAKANNLKVSEVIIADNYRPEFMLSTDEVLMSLVYDPKTRVILGGALSSMHDVSQSANVLSVCIQNKNTIDDLAMVDMLFQPQFDRPFNYLNILGQAAQAQADKAHK
# notes: synthetic gene, plasmid pMSsN2, E. coli BL21 (DE3), untagged, cell free extract, about 50 kDa
# Legend:
# [1] = substrate: NC(=O)C1=CN([C@@H]2O[C@H](COP(=O)(O)OP(=O)(O)OC[C@H]3O[C@@H](n4cnc5c(N)ncnc54)[C@H](O)[C@@H]3O)[C@@H](O)[C@H]2O)C=CC1; assay: cells, lysate or membranes; format: biochemical, Fructilactobacillus sanfranciscensis; settings: 50 mM potassium phosphate pH 7.0, 25 °C, air-saturated O2 (250 µM), cell free extract
# [2] = substrate: NC(=O)C1=CN([C@@H]2O[C@H](COP(=O)(O)OP(=O)(O)OC[C@H]3O[C@@H](n4cnc5c(N)ncnc54)[C@H](OP(=O)(O)O)[C@@H]3O)[C@@H](O)[C@H]2O)C=CC1; assay: cells, lysate or membranes; format: biochemical, Fructilactobacillus sanfranciscensis; settings: 50 mM potassium phosphate pH 7.0, 25 °C, air-saturated O2 (250 µM), cell free extract
protein,measurement,setting,value
B1,Km,[1],9 ± 1 µM
same,Vmax,[1],2.2 µmol/min/mg
same,Km,[2],5 ± 1 µM
same,Vmax,[2],1.1 µmol/min/mg
